Changes are numbered by the printed parent chain.
B1: endogenous mature Omi from HEK293 cell extracts (38 kDa band) (enzyme)
chain: AVPSPPPASPRSQYNFIADVVEKTAPAVVYIEILDRHPFLGREVPISNGSGFVVAADGLIVTNAHVVADRRRVRVRLLSGDTYEAVVTAVDPVADIATLRIQTKEPLPTLPLGRSADVRQGEFVVAMGSPFALQNTITSGIVSSAQRPARDLGLPQTNVEYIQTDAAIDFGNSGGPLVNLDGEVIGVNTMKVTAGISFAIPSDRLREFLHRGEKKNSSSGISGSQRRYIGVMMLTLSPSILAELQLREPSFPDVQHGVLIHKVILGSPAHRAGLRPGDVILAIGEQMVQNAEDVYEAVRTQSQLAVQIRRGRETLTLYVTPEVTE
notes: also called HtrA2
B2: GST-BIR3 fusion protein (BIR3 domain of human XIAP fused to GST) (other, UniProt P98170 238-358, looked up)
chain: RSESDAVSSDRNFPNSTNLPRNPSMADYEARIFTFGTWIYSVNKEQLARAGFYALGEGDKVKCFHCGGGLTDWKPSEDPWEQHAKWYPGCKYLLEQKGQEYINNIHLTHSLEECLVRTTEK
notes: domain: BIR3; also called wild type GST-BIR3; XIAP-BIR3; not shown: glutathione-S-transferase (GST) fusion partner
B3: mature Omi with the AVPS motif mutated to AAAS, processed in 293T cells from a C-terminal Flag-tagged mutant precursor (enzyme)
chain: B1 chain with V2A, P3A
notes: also called AAAS mutant; not shown: C-terminal Flag tag
B4: endogenous mature Smac/Diablo from HEK293 cell extracts (23 kDa band) (other, human, UniProt Q9NR28 56-239, looked up)
chain: AVPIAQKSEPHSLSSEALMRRAVSLVTDSTSTFLSQTTYALIEAITEYTKAVYTLTSLYRQYTSLLGKMNSEEEDEVWQVIIGARAEMTSKHQEYLKLETTWMTAVGLSEMAAEAAYQTGADQASITARNHIQLVKLQVEEVHQLSRKAETKLAEAQIEELRQKTQEEGEERAESEQEAYLRED
notes: mature

Assays:
XIAP [1] = molecular target: T1, XIAP (human, UniProt P98170 1-497); assay: far-western blot with ^35S-labeled in vitro translated XIAP
T1 construct: also called ^35S-labeled in vitro translated XIAP; ^35S-XIAP
T1 sequence (P98170 whole entry): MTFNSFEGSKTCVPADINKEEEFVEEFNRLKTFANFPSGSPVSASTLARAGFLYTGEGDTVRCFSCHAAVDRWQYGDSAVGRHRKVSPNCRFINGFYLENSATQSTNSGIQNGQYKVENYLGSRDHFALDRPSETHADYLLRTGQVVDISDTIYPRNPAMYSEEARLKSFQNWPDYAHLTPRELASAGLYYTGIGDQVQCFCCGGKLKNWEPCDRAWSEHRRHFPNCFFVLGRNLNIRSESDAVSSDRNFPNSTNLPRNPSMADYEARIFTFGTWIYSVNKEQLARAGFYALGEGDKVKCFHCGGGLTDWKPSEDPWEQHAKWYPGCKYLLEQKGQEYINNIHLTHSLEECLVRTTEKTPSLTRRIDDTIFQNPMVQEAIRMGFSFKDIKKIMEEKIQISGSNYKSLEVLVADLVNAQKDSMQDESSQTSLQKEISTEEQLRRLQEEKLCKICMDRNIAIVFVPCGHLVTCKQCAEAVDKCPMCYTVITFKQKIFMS
From the text: As mentioned above, the mechanism of IAP inhibition of caspases is conserved in mammals and insects. Accordingly, it is thought that other mammalian IAP-binding proteins are still undiscovered. To identify such proteins, a GST-BIR3 fusion protein was used as an affinity reagent to purify new IAP binding proteins from extracts of human HEK293 cells and mouse heart, kidney, liver and spleen tissues. […] Cells were homogenized and centrifuged once at 20,000×g and the supernatant was then subjected to centrifugation at 100,000×g. The resultant supernatant was pre-cleared with Glutathion-Sepharose beads and then incubated with GST-BIR3 bound to Glutathion-Sepharose beads for 12 hours at 4° C. The mixture was centrifuged at 500 rpm for three minutes and the GST-BIR3 bead pellet was washed three times in the lysis buffer. After binding the extracts to the GST-BIR3 protein, the bound proteins were eluted with 200 μM of the Smac IAP-binding motif peptide AVPIA (SEQ ID NO:2) at 37° C. for one hour and analyzed by far-western blotting with ³⁵S-labeled in vitro translated XIAP. Specifically, the affinity-purified proteins were subjected to SDS-PAGE electrophoresis and then transferred to a nitrocellulose membrane using standard western blotting technique. […]

[2] = molecular target: T2, Omi-S/A with the AVPS motif mutated to SSAS, from GFP-IETD-SSA (human, UniProt O43464 137-458); assay: GST-BIR3 precipitation of transfected 293T cell extracts, Flag immunoblot
T2 construct: expressed as GFP-IETD fusion
T2 sequence: B1 chain with A1S, V2S, P3A, S173A

[3] = molecular target: T3, M-Omi-S/A-GFP (inactive S306A Omi-GFP fusion protein without the MTS, initiator methionine retained) (human, UniProt O43464 134-458); assay: GST-BIR3 precipitation of transfected cell extracts, immunoblot
T3 construct: not shown: C-terminal GFP tag
T3 sequence: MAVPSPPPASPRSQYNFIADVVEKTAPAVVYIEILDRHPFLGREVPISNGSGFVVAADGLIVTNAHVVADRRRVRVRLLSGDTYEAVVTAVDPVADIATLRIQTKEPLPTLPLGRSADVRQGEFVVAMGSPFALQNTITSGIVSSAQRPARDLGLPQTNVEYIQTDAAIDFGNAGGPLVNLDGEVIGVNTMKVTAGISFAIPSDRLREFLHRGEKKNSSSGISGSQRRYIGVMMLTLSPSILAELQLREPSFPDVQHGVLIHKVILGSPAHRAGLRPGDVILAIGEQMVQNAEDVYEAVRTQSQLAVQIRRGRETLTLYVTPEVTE

[4] = molecular target: T4, M-Omi-GFP (active Omi-GFP fusion protein without the MTS, initiator methionine retained) (human, UniProt O43464 134-458); assay: as above
T4 construct: also called Omi134-458-GFP; not shown: C-terminal GFP tag
T4 sequence: T3 sequence with A174S

[5] = molecular target: T5, Omi-deltaAVPS (C-terminal His6-tagged recombinant mature Omi with the AVPS motif deleted) (human, UniProt O43464 138-458); assay: GST pull-down with purified recombinant proteins, Coomassie gel
T5 construct: also called Omi-ΔAVPS
T5 sequence: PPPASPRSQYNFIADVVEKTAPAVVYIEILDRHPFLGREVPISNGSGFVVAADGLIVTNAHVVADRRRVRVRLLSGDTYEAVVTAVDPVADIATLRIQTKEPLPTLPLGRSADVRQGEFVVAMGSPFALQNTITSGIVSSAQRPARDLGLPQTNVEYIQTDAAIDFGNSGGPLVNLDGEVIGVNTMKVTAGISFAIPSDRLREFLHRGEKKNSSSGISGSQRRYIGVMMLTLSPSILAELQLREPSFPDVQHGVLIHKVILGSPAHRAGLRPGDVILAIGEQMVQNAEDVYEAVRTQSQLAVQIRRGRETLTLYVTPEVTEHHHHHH
From the text: To determine whether a recombinant Omi lacking the first 133 residues (mature Omi) can interact with the GST-BIR3 fusion protein, this protein was expressed with a C-terminal His6 tag in bacteria and purified to apparent homogeneity (see FIG. 7B). […] FIGS. 7A and 7B show scanned images of Coomassie stained gels representing SDS-PAGE analysis of purified C-terminal His6-tagged recombinant wild type mature Omi (WT), Omi-ΔAVPS, Omi-S306A, and mature Smac (FIG. 7A) and recombinant Omi and Smac proteins with GST-BIR1, 2, GST-BIR3 or GST-BIR3-E314S fusion proteins (FIG. 7B). Both recombinant mature Omi and Smac were able to interact equally with the wild type GST-BIR3 protein but not with the GST-BIR3-E314S mutant ([…]). Mature Omi and Smac were also able to interact with the GST-BIR1, 2 fusion protein. […] However, deletion of the AVPS motif of mature Omi completely abolished its interaction with the GST-BIR3 fusion protein.

XIAP [6] = molecular target: T1, XIAP; assay: co-immunoprecipitation with Flag antibody from 293T cells, XIAP immunoblot
[7] = molecular target: B1; assay: immunodepletion of 293 extracts with Smac monoclonal antibody, then GST-BIR3 pull-down
Method: The undepleted and depleted extracts were incubated with the GST-BIR3 protein and the bound proteins were eluted as above. The eluates were then analyzed by far-western blotting with ³⁵S-XIAP and by western blotting with the Smac antibody as described above (see FIG. 4, left and right panels, respectively). […] The asterisk in FIG. 4 indicates non-specific bands and the arrow indicates the IgG band.

## B1
XIAP [1]
  binding result: binds

## B2
[2]
  binding result: no binding
[3]
  binding result: no binding
[4]
  binding result: no binding
[5]
  binding result: no binding

## B3
XIAP [6]
  binding result: no binding

## B4
[7]
  binding result: no binding

Source: patent US20030073629A1 (published 2003)
